Data on 10 molecules can be found in patent publication US20230365711A1 (Hoffmann-La Roche, published 2023).

Test [1] concerns the target T1, human carcinoembryonic antigen (CEA), membrane-bound on cells (human, UniProt P06731 35-685).
T1 construct: whole, on cells; also called CEACAM-5; CD66e
T1 sequence (looked up): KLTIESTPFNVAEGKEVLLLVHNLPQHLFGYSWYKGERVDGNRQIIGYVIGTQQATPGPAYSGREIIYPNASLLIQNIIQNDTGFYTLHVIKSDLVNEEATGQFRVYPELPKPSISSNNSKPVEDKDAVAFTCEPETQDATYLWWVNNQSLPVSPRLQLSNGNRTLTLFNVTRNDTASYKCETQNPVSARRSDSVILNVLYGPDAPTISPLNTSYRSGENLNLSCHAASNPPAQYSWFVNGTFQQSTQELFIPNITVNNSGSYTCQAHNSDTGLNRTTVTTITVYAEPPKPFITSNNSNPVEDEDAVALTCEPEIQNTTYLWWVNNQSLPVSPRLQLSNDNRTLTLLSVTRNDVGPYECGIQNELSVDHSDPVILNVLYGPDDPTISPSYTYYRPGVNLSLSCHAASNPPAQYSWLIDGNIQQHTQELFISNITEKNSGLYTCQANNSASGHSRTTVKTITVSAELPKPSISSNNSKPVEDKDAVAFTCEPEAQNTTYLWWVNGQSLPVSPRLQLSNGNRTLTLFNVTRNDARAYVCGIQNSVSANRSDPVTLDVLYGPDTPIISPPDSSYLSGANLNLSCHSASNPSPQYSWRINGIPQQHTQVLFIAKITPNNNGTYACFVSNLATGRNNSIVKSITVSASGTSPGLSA
Description: flow cytometry on MKN45 cells, IgG1/kappa. The protocol:
An affinity matured heavy chain variable region construct, CH7A rF9, and an affinity matured light chain variable region construct, CL1A rH11, were paired with the parent light chain variable region construct and the heavy chain variable region construct, respectively, and with each other. All antibodies were converted into human IgG1/kappa and binding to the CEA-positive cell-line MKN45 was measured by flow cytometry. […] The matured light chain shifts the EC50 values to lower numbers, whereas the matured heavy chains (rF9 in FIG. 6, and rB9 in FIG. 15) shift the total fluorescence signal intensity in a flow-cytometry measurement. […] The combination of these two chains increases the affinity even further.

Test [2] addresses T2, huNABA-avi-his (hybrid protein N-A1-B3-A2: N and A1 domains of human BGP, B3 domain of human CEA, A2 domain … (human, biotinylated at the avi tag (in vivo, co-transfected biotin ligase))).
T2 construct: also called NABA-avi-his reagent; biotinylated NABA
T2 chain: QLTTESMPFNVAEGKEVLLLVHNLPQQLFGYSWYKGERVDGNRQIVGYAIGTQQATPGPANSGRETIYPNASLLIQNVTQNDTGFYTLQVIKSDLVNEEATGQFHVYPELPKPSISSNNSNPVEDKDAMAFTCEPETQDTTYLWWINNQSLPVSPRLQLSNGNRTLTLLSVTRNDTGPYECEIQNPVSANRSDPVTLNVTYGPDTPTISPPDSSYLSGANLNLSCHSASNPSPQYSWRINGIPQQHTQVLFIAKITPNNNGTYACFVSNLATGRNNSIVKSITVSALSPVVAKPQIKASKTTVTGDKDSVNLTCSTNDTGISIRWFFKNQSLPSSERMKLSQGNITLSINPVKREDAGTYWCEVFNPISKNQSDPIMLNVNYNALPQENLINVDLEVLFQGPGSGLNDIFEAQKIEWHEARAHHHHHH
Description: Proteon SPR, antibody analyte on biotinylated NABA (Neutravidin chip). The source says:
(§1) Shown in FIG. 22 are Proteon (Biacore) sensorgrams obtained for the binding of the CDR-H3 antibody variants to the CEA antigen-harbouring chimeric protein NABA. […] The affinity matured precursor clone 5HFF12 and the parental antibody CH7A were included for direct comparison. All antibodies tested in this assay had 2F1 as the light chain. […] The relative affinity of each, measured in the bivalent form, is as follows: 5HFF12>CH7A (Y98A/D99Y)>CH7A (Y98A)>CH7A>CH7A (E102Q)>CH7A (D99Y)>CH7A (D99H)>CH7A (A103T)>CH7A (V101F)>CH7A (W95Y).

Test [3] has as its target T2, huNABA-avi-his (hybrid protein …). Described as above. From the text:
(§2) Proteon (Biacore) sensorgrams were obtained for the binding of the combined framework and CDR-H3 variants to the CEA antigen-harbouring chimeric protein NABA. […] The precursor clone 5L1A10 and the parental antibody CH7A were included for direct comparison. All antibodies tested in this assay had 2F1 as the light chain FIG. 25.

Test [4] has the same target. In words: Proteon SPR, antibody analyte on biotinylated NABA (Neutravidin chip); column Ka (M).
From the text: as §1

For test [5] the target is unchanged. Described as above.
From the text: as §2

Test [6] deals with T1, human carcinoembryonic antigen (CEA), …. Description: FACS on MKN45 cells.
In test [7] the target is T2, huNABA-avi-his (hybrid protein …). In words: Proteon SPR, antibody analyte on biotinylated NABA (Neutravidin chip).
The target is the same in test [8]. Description: Proteon SPR, antibody analyte on biotinylated NABA (Neutravidin chip); column Ka (M).

Read-outs that look alike come from different tables or passages of the source.

B1: antibody with affinity matured heavy chain variable region CH7A rF9 and affinity matured light chain variable region CL1A rH11 (antibody, V domains shown)
VH: QVQLVQSGSELKKPGASVKVSCKASGYTFTEYGMNWVRQAPGQGLEWMGWINTKSGEATYVEEFKGRFVFSLDTSVSTAYLQISSLKAEDTAVYYCARWDFYDYVEAMDYWGQGTTVTVSS
VL: DIQMTQSPSSLSASVGDRVTITCKASQTVSANVAWYQQKPGKAPKLLIYLASYRYRGVPSRFSGSGSGTDFTLTISSLQPEDFATYYCHQYYTYPLFTFGQGTKLEIK
notes: The suffix G2(1) is not explained; also called CH7ArF9 CL1A rH11; CH7Arf9, CL1A rH11G2(1)
On to B1, for which the “EC50 (read off the curve)” value in test [1] is around 0.5 µg/mL.

B2: antibody with affinity matured heavy chain variable region CH7A rF9 and parent light chain variable region CL1A (antibody, human IgG1, V domains shown)
VH: QVQLVQSGSELKKPGASVKVSCKASGYTFTEYGMNWVRQAPGQGLEWMGWINTKSGEATYVEEFKGRFVFSLDTSVSTAYLQISSLKAEDTAVYYCARWDFYDYVEAMDYWGQGTTVTVSS
VL: DIQMTQSPSSLSASVGDRVTITCKASQNVGTNVAWYQQKPGKAPKLLIYSASYRYSGVPSRFSGSGSGTDFTLTISSLQPEDFATYYCHQYYTYPLFTFGQGTKLEIK
notes: also called CH7A rF9, CL1A
As to B2, the “EC50 (read off the curve)” value in test [1] is around 0.7 µg/mL.

B3: antibody with heavy chain CH7A (Y98A/D99Y) and light chain 2F1 (antibody, V domains shown)
VH: QVQLVQSGSELKKPGASVKVSCKASGYTFTEFGMNWVRQAPGQGLEWMGWINTKTGEATYVEEFKGRFVFSLDTSVSTAYLQISSLKAEDTAVYYCARWDFAYYVEAMDYWGQGTTVTVSS
VL: DIQMTQSPSSLSASVGDRVTITCKASAAVGTYVAWYQQKPGKAPKLLIYSASYRKRGVPSRFSGSGSGTDFTLTISSLQPEDFATYYCHQYYTYPLFTFGQGTKLEIKR
notes: Bivalent form; also called double mutant (Y98A/D99Y)
For the molecule B3, the figures for the Kd in test [2] and in test [3] were 0.186 nM and 0.465 nM, respectively. Also, the kon in test [4] was determined as 236000 M⁻¹ s⁻¹; in test [5], 481000 M⁻¹ s⁻¹.

B4: CH1A1A (Y98A/D99Y) 2F1 (antibody, V domains shown)
VH: QVQLVQSGAEVKKPGASVKVSCKASGYTFTEFGMNWVRQAPGQGLEWMGWINTKTGEATYVEEFKGRVTFTTDTSTSTAYMELRSLRSDDTAVYYCARWDFAYYVEAMDYWGQGTTVTVSS
VL: DIQMTQSPSSLSASVGDRVTITCKASAAVGTYVAWYQQKPGKAPKLLIYSASYRKRGVPSRFSGSGSGTDFTLTISSLQPEDFATYYCHQYYTYPLFTFGQGTKLEIKR
notes: also called CH1A1A (98/99); CH1A1A (Y98A/D99Y)x2F1
In turn, B4 came in with a Kd in test [3] of 0.537 nM. For the same molecule, the kon in test [5] came to 628000 M⁻¹ s⁻¹.

B5: CH1A1B (Y98A/D99Y) 2F1 (antibody, V domains shown)
VH: QVKLQQSGAEVKKPGASVKVSCKASGYTFTEFGMNWVRQAPGQGLEWMGWINTKTGEATYVEEFKGRVTMTTDTSTSTAYMELRSLRSDDTAVYYCARWDFAYYVEAMDYWGQGTTVTVSS
VL: DIQMTQSPSSLSASVGDRVTITCKASAAVGTYVAWYQQKPGKAPKLLIYSASYRKRGVPSRFSGSGSGTDFTLTISSLQPEDFATYYCHQYYTYPLFTFGQGTKLEIKR
B5: in test [3], the Kd came out at 0.507 nM. Moreover, the association rate constant (kon) in test [5] was found to be 711000 M⁻¹ s⁻¹.

B6: anti-CEA antibody with heavy chain CH1A1D and light chain 2F1 (antibody, V domains shown)
VH: QVQLVQSGAEVKKPGETVKISCKASGYTFTEFGMNWVRQAPGQGLEWMGWINTKTGEATYVEEFKGRVTMTTDTSTSTAYMELRSLRSDDTAVYYCARWDFYDYVEAMDYWGQGTTVTVSS
VL: DIQMTQSPSSLSASVGDRVTITCKASAAVGTYVAWYQQKPGKAPKLLIYSASYRKRGVPSRFSGSGSGTDFTLTISSLQPEDFATYYCHQYYTYPLFTFGQGTKLEIKR
B6: the “EC50 (read off the curve)” value in test [6] is around 1 µg/mL. In test [7], this molecule returned a Kd of 9.28 nM. The kon in test [8] was 53100 M⁻¹ s⁻¹.

B7: anti-CEA antibody with heavy chain CH1A1A and light chain 2F1 (antibody, V domains shown)
VH: QVQLVQSGAEVKKPGASVKVSCKASGYTFTEFGMNWVRQAPGQGLEWMGWINTKTGEATYVEEFKGRVTFTTDTSTSTAYMELRSLRSDDTAVYYCARWDFYDYVEAMDYWGQGTTVTVSS
VL: DIQMTQSPSSLSASVGDRVTITCKASAAVGTYVAWYQQKPGKAPKLLIYSASYRKRGVPSRFSGSGSGTDFTLTISSLQPEDFATYYCHQYYTYPLFTFGQGTKLEIKR
In the case of B7, the “EC50 (read off the curve)” value in test [6] was around 1 µg/mL. In test [7], this molecule showed a Kd of 5.91 nM. In addition, the kon in test [8] amounted to 81800 M⁻¹ s⁻¹.

B8: anti-CEA antibody with heavy chain CH1A1C and light chain 2F1 (antibody, V domains shown)
VH: QVQLVQSGPELKKPGASVKVSCKASGYTFTEFGMNWVRQAPGQGLEWMGWINTKTGEATYVEEFKGRVTMTTDTSTSTAYMELRSLRSDDTAVYYCARWDFYDYVEAMDYWGQGTTVTVSS
VL: DIQMTQSPSSLSASVGDRVTITCKASAAVGTYVAWYQQKPGKAPKLLIYSASYRKRGVPSRFSGSGSGTDFTLTISSLQPEDFATYYCHQYYTYPLFTFGQGTKLEIKR
As to B8, in test [6], the “EC50 (read off the curve)” value was around 1 µg/mL. The molecule also displayed a Kd in test [7] of 13 nM. The molecule also registered a kon in test [8] of 44900 M⁻¹ s⁻¹.

B9: anti-CEA antibody with heavy chain CH1A1F and light chain 2F1 (antibody, V domains shown)
VH: QVQLVQSGAEVKKPGASVKVSCKASGYTFTEFGMNWVRQAPGQGLEWMGWINTKTGEATYVEEFKGRVTMTTDTSTSTAYLELRSLRSDDTAVYYCARWDFYDYVEAMDYWGQGTTVTVSS
VL: DIQMTQSPSSLSASVGDRVTITCKASAAVGTYVAWYQQKPGKAPKLLIYSASYRKRGVPSRFSGSGSGTDFTLTISSLQPEDFATYYCHQYYTYPLFTFGQGTKLEIKR
For B9, in test [6], the “EC50 (read off the curve)” value is around 1 µg/mL. This molecule gave a Kd in test [7] of 7.58 nM. The molecule also gave an on-rate constant (kon) in test [8] of 70800 M⁻¹ s⁻¹.

B10: anti-CEA antibody with heavy chain CH1A1B and light chain 2F1 (antibody, V domains shown)
VH: QVKLQQSGAEVKKPGASVKVSCKASGYTFTEFGMNWVRQAPGQGLEWMGWINTKTGEATYVEEFKGRVTMTTDTSTSTAYMELRSLRSDDTAVYYCARWDFYDYVEAMDYWGQGTTVTVSS
VL: DIQMTQSPSSLSASVGDRVTITCKASAAVGTYVAWYQQKPGKAPKLLIYSASYRKRGVPSRFSGSGSGTDFTLTISSLQPEDFATYYCHQYYTYPLFTFGQGTKLEIKR
For B10, the “EC50 (read off the curve)” value in test [6] was around 1 µg/mL. In addition, binding in test [7] was characterised by a dissociation constant (Kd) of 8.9 nM. In test [8], this molecule registered a kon of 53700 M⁻¹ s⁻¹.
